In a protein production outcome set (Wang et al. 2014):

Assay: label from the status in PepcDB records

| Sequence | protein production |
| --- | --- |
| MVRVRFAPSPTGFLHVGGARTALFNFLFARKEKGKFILRIEDTDLERSEREYEEKLMESLRWLGLLWDEGPDVGGDHGPYRQSERVEIYREHAERLVKEGKAYYVYAYPEEIEEMREKLLSEGKAPHYSQEMFEKFDTPERRREYEEKGLRPAVFFKMPRKDYVLNDVVKGEVVFKTGAIGDFVIMRSNGLPTYNFACVVDDMLMEITHVIRGDDHLSNTLRQLALYEAFEKAPPVFAHVSTILGPDGKKLSKRHGATSVEAFRDMGYLPEALVNYLALLGWSHPEGKELLTLEELISSFSLDRLSPNPAIFDPQKLKWMNGYYLRNMPIEKLAELAKPFFEKAGIKIIDEEYFKKVLEITKERVEVLSEFPEESRFFFEDPAPVEIPEEMKEVFSQLKEELQNVRWTMEEITPVFKKVLKQHGVKPKEFYMTLRRVLTGREEGPELVNIIPLLGKEIFLRRIERSLGG | not failed |
| MDEQEFRKQLTLKPVEEEHIDQFNELLSYVFQVTEADIEESGFENKRAFIKSKQPILELSKVFGWFHENQLISQIAIYPCEVNIHGALYKMGGVTGVGTYPEYANHGLMKDLIQTALEEMRQDKQWISYLFPYNIPYYRRKGWEIMSDKLSFKIRDTQLPKTVPVPGMIERLAVDHPDVFDVYARFARQNHGALIRSAFNWEEYWRFENEEERTAAVYYGANQEPLGVLFYWVADEVFHIKEMFYLNQEARNGLWNFITAHFSMVYWVKGDIYKNEPLAFLLEDSQIKESIEPYYMARIVDVKAFLENFPFESTAKPFHFVVKDPVAEWNNGIFGLIWDENDQVTITDEPLGTAVHLDIQTLTCLVMNYRRPSYLHRIERIDTDKETLNSLERIFPDQEAYFSDYF | not failed |
| MLRNTSHSYGGIARALHWLCALAVIAALVFIELKGNFPKGDPLRSGLGYAHVQAGLIVLLLVLPRLAWRLGNPPPAIEPAPSPAMNLLAHAGHWALYALMLALPILGIAFIQANGREVALFGLALPAFMPNDPPLGKELKEIHELLGNVLLWLSILHAAAAVWHHRFLKDDTLTRLTGPMR | failed |
| LLEIKRKGAKRGSQHYSDRTCARCQESLGRLSPKTNTCRGCNHLVCRDCRIQESNGTWRCKVC | not failed |
| MMNSRQRYKAFISYSHHDRKAAEWLHRSLESYRPPAGLRAGLGEASGNALKPIFRDRDELSAAADLSEAIRDALDRSDTLIILCSSHAATSRWVDKEVAHFLTLRGADHMISVIAPGAPEGLPLMELLPPALRAALPEGVEPLAVDLRQDADGRRLAKLKIAARLLGVSLDRLVQRDARRRLRLMTAVSGVALAITVGMGAMTVVTLKSRQIAREQRDETEALVAYMLGDLREQLEPVGRLDLLDGVSAKVLAYYAKAQSDQLDDKALAQRAKAQTLLGTIREQRGDLEGAQDAFAQAAATTHALVERSPNDGDRVFDEAQNVFWLAYMGWRRGEIAQAERGFKRYAELAQRLVVIDPNRADWRIEVAYAKNNLGTLLFEEGRAGEALASFRAAFSIFEAERLRAPTDKQRLMDSANARAWVADCLLLMAKPREAFTERKAAAELLAKGEAAFPADQRLAAKSVATQLALARLELDLGRVAEARSRSKAAMNRLRELAALDPTNTRWREYVLIGELDFIDFAIWSGQPVQARSLHAAALANLARTRKGQEGGSWRPDLDGRLARQAVVLALSVGDVATAKRAAKSLVEALETSKVDRETAFGRTDLLGLAQLVDGKPSAAIKALSPRRNALPPASLDVLARAYAAVGERETAARIVRDLKQEGYAHPGFVAFWRESPAGGPPQSGVLK | failed |
| ECPAVVAVVARGSEQNLQIRPARYSEESPWTSNGFEEKNFRSFFGRMEKHYRESTGESLMKDVYVMGLNNIEYPASLPLSSEGSSAIELGTSISSGRDNVISAIDRFESATGCTPKYLLAGYSQGVLIVDGYEEELIARDQYLGTLHIANPAQQVDDPTLVGHEVTTGGLASSVEPVEDNPFKVSYCLPGDIVCDRSFEQFSAAGSSIAAAQLSTGNIRPGRVHVQYFVTTQPWDEQIFDEVASWIEAA | failed |
| MNIWIRGGTSDANTISKEIKRNFKDSFLILTTTTDFGGKIAENFADFVISEKMNYDNLKKTLVNKKIDVFIDATHPFATHASETGMKISKELNIPYIRYERPVEEFKDVFYVENFEEAAKLALKISKKNIFYMSGIKNLKTVSEIIPIEKLIVRILPTSVPEALKILPSKNIVAMQGVFSENLNKDLITDYNCDVIITKDSGKSGGLYEKVSGAVLAGAKPIIIKRPEINYPLKFEKIDELVNYLKN | failed |
